Experimental data as given in the domain aggregation screens of Martell et al. (2025).

Assay: soluble fraction after stress (log2 fold change); higher = more stays soluble; pooled small domains, quantitative proteomics
Conditions: stress: pH 4
Outline: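 Values are log2 fold changes, and higher ones mean more of the domain stayed soluble. Each fold change reflects the soluble amount of a domain after acid stress and is taken as a measure of aggregation propensity. The stress was pH 4, applied to pooled custom libraries of small protein domains analysed by high-throughput quantitative proteomics.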

HMYEGNEFSSTGMFREDILAITAVHPMREDAVTELLARSNESEETLEMMIDEELLRRVAYGNHNYYMRRFR
soluble fraction (log2): -0.388

HMYEHLKALRESLGMTQAEFGESVGVAKSTYNNYEIGARDPKSDFWIAVAQRYGVTIDYLMGFSDDPKKT
soluble fraction (log2): 0.253

HMYELSDTEWKIIEQVGLGASNKEIAASLHFSEGTIRNYLSVILDKLSLRDRTQLAILYVKMN
soluble fraction (log2): -0.122

HMYEPPTEDEKRVLSLLATRESIVRSDVDRLLGVSQSTANRILKQMIEKYLISQEGTGKNTKYIK
soluble fraction (log2): -0.113

HMYESAMSDLHARIMSSDDPHGEIYKMLTQSGPEAKYIQDMYNETSIDRGLHPDDDFEDIIDAMVAELDD
soluble fraction (log2): -1.24

HMYEVVPNMKGLSYEQAATALRTAGLEPELSDSIYDDKTRPGTVLEQSPRANTKVKPGRTVYLTVNAF
soluble fraction (log2): 0.105

HMYFFNTFTQRLFDNPELTQEEAIRQMYPGISGVQTAEKLQENFMADVYIQAAIRQEIVVQLIR
soluble fraction (log2): 0.22

HMYGSLGEYELAAVQWIYGKGKITTRELSSLIGKGLTLSSKTLRGLAAKGILEWHGNSKNDPSQFYSLP
soluble fraction (log2): -0.196

HMYHADLIGLEARSTAGDKLGEVNAVYNFGAGDLIEIKMTDGNLEMLPFTRQYVPTVSIKDGFIIVQM
soluble fraction (log2): -1.08

HMYHIYPVADNDTPKLSADRLEYSLSNALLTNKLLNIDEIKKIYNDVILDKDEDGTLELSFKS
soluble fraction (log2): 0.167

HMYIDANTALLAKRIQAKNGFLPLSDKSTAEEIYAEFGISKKAFKKALGALYKERLVRIGDEGVVWV
soluble fraction (log2): 0.0176

HMYINVQNARTIASFRSSLWRMHRDFTNQGYITADGLKTFLEMGKLYEDAGGNDIYHSKLLPEITALEIKY
soluble fraction (log2): -0.421

HMYKDVVVPNTVGDSEEKAYQTLSALGLVVNITYDEDASKSDRVVTSQNPTNKTIKEGESVNIVVNKQP
soluble fraction (log2): -0.242

HMYKIDFAEGDRVIIKGGAFSGLRATVVSLHPEKGMAKIKVYMFGDRETLVDIEVSQLEKDK
soluble fraction (log2): 0.113

HMYKTKVDIAYDMLMERITEGVYKPGEKLVITHISKELGISDIPVREAIRRLESEGYVKILPNQGAIVYD
soluble fraction (log2): -0.185

HMYLGRKATLLSSISGEKMGNAEVLADGNLMSIYVKSLTGEPLSYGSTVLIIKHSEDQNFYLVQN
soluble fraction (log2): -0.65

HMYLQKGISNGKVYLSIVHGYRDPVTKKVRRKTIRSLGYLEDLEKQYADPIKHFEAVVAKMNEEEALE
soluble fraction (log2): 0.0302

HMYLSNPTYRGDSLVDALTQIGVDASFASRRDLARKNGIENYTGSAKQNLELLQLLREGRLR
soluble fraction (log2): -0.173

HMYLYADIYKKLEEKIKNMEVGEKLPSERAMVQEYGVSRNVLREALVLLSERGLIEIRPGKGSYVTNQQ
soluble fraction (log2): -0.177

HMYNKKAYVNTNSDFLNVRSEASTESSVVDKLARGTEVNIVGNIQNGFYPIVLNEKNAWVSSDWISFEKPT
soluble fraction (log2): ≥ 0.43

HMYNNDEIEKIQTMYNAIYQLNDIEKALIMLFLEDKSYKEIAEIMGISEGNARIKMMRTKDKLKNLISKN
soluble fraction (log2): -0.608

HMYNNGYVNSDRVNFRKGASTNSDIYKVLDKNTSVTILDYEGDWSKVKINDTVGYVYTKYITAG
soluble fraction (log2): -0.0882

HMYNTDAMGVRIGELRRAKGLTQEAFAKTLGISAQAVSKWETGLGFPDISLLPMIAETLGTKIETLFGAE
soluble fraction (log2): -0.272

HMYPATGTVVTAGGHLNMRSEPDRSGAILARIPNGTALTLTGKNGDWYAATYAGRSGYVSAQYISLS
soluble fraction (log2): -0.13

HMYPDNSGDIQQLAQNIFRQENVSVDRDGLALISSRLGSDHAATRSEIEKLALLAGPGGTLTFETISEVLG
soluble fraction (log2): -0.942

HMYPEDMMSLMRRALRLINHLESNRKDRHNSRQLELTESKIRRLARYYKGRGLIETEWAYKRDQLRLLV
soluble fraction (log2): -0.184

HMYPIYDYISNMYLGKHLNAGMSLEEARGIMDEMLEKLLFDVPEEYHIDRDHFYEYLKKYYTERFSA
soluble fraction (log2): -1.7

HMYPQLIGFKVIDEDKGEVGVVKEVSESMHQILLTVMKGKKEILIPLAEEFITKVNRHKKELFMVLPDG
soluble fraction (log2): -0.383

HMYRLDVEISDEIKRDIDEETLSEIKGIIAEDPRPSYQNDETRIYRFTFAGREISFRVKDRTATVTEIL
soluble fraction (log2): -0.736

HMYRPLYQQVYDFLVKQIAAGEWGPGESLPSEQALAGRLNVSQGTVRKALDALAADSLIDRRQGKGTYVAE
soluble fraction (log2): 0.32

HMYRPQQEFTMRDLFQNNLNGSESASVRRDALGAELGIGYGNAKRFLERLNHYGVSREEFTAALEKLESE
soluble fraction (log2): -0.205

HMYRSGGYTGAGKDDEEAGVVHRNEFVNTADAVRNPHVKRFLDVFNVAQKDGTIRMLNTSQILERARLDA
soluble fraction (log2): 0.0596

HMYRYGETPMVVVPDLIGRTVSDIYEEMNADFRLEKFGNGNTVISQAPKPGERVEQGSVIRVYLSGQDQ
soluble fraction (log2): -0.206

HMYSDERLQTFMELLPFFVEELSNKHVTRYNVWQNYREAYPNGYGRSQFFFHLGQNLEAKKK
soluble fraction (log2): -0.0353

HMYSIKEFSFEVTTPGQRLDLFLSEELIGQTRSSIQNLILKKYVTVNGQVSKASYKVKTGEFISVKIPV
soluble fraction (log2): 0.22

HMYSINKTEFGERIKSAREELKMTQTQLAQLLKTSQTTVAKYEHGEQIPRADVLATISKATGKSTDWLLFG
soluble fraction (log2): 0.11

HMYSKQRELIMEAVFKNRVHPTAEYVYKLLKKDHPELSLGTVYRNLNYWAENNMLKKINVPGGSDRFDGT
soluble fraction (log2): 0.236

HMYSLGPKERSIVSFIANRPGSRSGQIAKSLQIPLPTIKRILNGLVENKVIARHGIGAGTNYVVEDQA
soluble fraction (log2): 0.0323

HMYSMSAPMPGVILEIKVAPGDQVNKGDVVMVLEAMKMKNDLHAARTGTVESIDINSGEQVKYGQVLLRFV
soluble fraction (log2): 0.0869

HMYSQIGYGSSGSDVRKLQEILNGKGYNLSVDGQFGAKTKSAVRDYQSKNGLSVDGIVGVNTWGKLT
soluble fraction (log2): 0.22

HMYSYNKEEVGKRIKSIRQQKGLTQESFGELFGASKGNVATWEKGISLPNASRLREIADLVSITVEELLYG
soluble fraction (log2): 0.00486

HMYTLGEESDGTVRLLELYDIIKNKNEKIFVVDELDRSLHPNLTFNFVKKYLSIENKSQLIVSTH
soluble fraction (log2): -1.11

HMYVKKSSFVKKSLNNYEFKITDNTNDLLIFYKGMLPDLFREEQGIVVEGLIDKNNNIVASKV
soluble fraction (log2): -0.0152

HMYVSGVPAITSIERVSTPGRRVYAGYTTVPKVIGGMGVSILTTSRGVMTDAEARRQKVGGELLAKV
soluble fraction (log2): -0.29

HMYVTGSAIRRLREKRKLTQAQLAAALSVSDKTVSKWETARGLPDITLLEPLARALQVSVPELLSGEEV
soluble fraction (log2): -0.0388

HMYVVLYPGMARDEAVQVMNELQSRGIDYYEKNGNIYVPKTDENSLRMELANLGYPKTTNNYD
soluble fraction (log2): -0.188

HMYYHQIIGLDVVDENGNTLGKIKEILSPGANDVWVVKRKQKNDLLLPVIDDVIKDVDLAAGKVHVELLEG
soluble fraction (log2): -1.38
